Each block holds one binder with its values, some of them ahead of it.
Key:
[1] = target: T1, human carcinoembryonic antigen (CEA), membrane-bound on cells (human, UniProt P06731 35-685); experiment: flow cytometry on MKN45 cells, IgG1/kappa
T1 construct: whole, on cells; also called CEACAM-5; CD66e
T1 sequence (looked up): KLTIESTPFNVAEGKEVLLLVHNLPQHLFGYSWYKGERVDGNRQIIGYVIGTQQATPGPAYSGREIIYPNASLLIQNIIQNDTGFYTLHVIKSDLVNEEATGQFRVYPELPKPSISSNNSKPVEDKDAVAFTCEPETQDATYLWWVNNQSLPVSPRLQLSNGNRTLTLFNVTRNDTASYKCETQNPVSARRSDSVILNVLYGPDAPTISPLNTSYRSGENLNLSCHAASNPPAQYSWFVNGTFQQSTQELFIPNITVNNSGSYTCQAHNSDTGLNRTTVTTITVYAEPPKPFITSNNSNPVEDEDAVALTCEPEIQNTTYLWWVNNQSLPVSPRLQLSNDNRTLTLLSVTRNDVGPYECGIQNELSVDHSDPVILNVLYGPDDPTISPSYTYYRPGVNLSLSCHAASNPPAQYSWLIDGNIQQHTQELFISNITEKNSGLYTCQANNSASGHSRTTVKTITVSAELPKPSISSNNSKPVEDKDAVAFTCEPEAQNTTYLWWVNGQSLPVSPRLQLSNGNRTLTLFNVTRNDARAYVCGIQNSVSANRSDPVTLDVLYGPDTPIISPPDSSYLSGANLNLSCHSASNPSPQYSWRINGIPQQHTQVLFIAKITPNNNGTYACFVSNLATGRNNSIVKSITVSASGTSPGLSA
Description: (§1) An affinity matured heavy chain variable region construct, CH7A rF9, and an affinity matured light chain variable region construct, CL1A rH11, were paired with the parent light chain variable region construct and the heavy chain variable region construct, respectively, and with each other. All antibodies were converted into human IgG1/kappa and binding to the CEA-positive cell-line MKN45 was measured by flow cytometry. […] The matured light chain shifts the EC50 values to lower numbers, whereas the matured heavy chains (rF9 in FIG. 6, and rB9 in FIG. 15) shift the total fluorescence signal intensity in a flow-cytometry measurement. […] The combination of these two chains increases the affinity even further.

[2] = target: T1, human carcinoembryonic antigen (CEA), …; experiment: flow cytometry on MKN45 cells, IgG [upper panel]
Description: as §1

[3] = target: T2, huNABA-avi-his (hybrid protein N-A1-B3-A2: N and A1 domains of human BGP, B3 domain of human CEA, A2 domain … (human, biotinylated at the avi tag (in vivo, co-transfected biotin ligase))); experiment: Biacore, Fab on immobilized NABA-avi-his; column Monovalent Affinity
T2 construct: also called NABA-avi-his reagent; biotinylated NABA
T2 chain: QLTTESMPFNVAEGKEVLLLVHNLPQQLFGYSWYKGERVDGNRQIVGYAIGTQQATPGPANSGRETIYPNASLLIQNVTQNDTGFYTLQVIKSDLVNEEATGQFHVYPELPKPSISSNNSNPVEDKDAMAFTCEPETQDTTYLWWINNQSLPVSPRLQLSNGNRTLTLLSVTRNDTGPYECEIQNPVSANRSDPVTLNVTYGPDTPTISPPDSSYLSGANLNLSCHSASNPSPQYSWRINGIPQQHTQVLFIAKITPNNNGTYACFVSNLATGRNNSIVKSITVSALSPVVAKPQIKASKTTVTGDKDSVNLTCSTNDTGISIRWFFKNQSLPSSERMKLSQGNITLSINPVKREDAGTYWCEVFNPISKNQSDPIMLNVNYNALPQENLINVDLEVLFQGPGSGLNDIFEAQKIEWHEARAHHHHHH

[4] = target: T2, huNABA-avi-his (hybrid protein …); experiment: Biacore, column Affinity, CDR-H3 rows; antigen not named on the sheet, NABA-avi-his per paragraph 230
[5] = target: T2, huNABA-avi-his (hybrid protein …); experiment: Biacore, column Affinity, CDR-H1 and CDR-H2 rows; antigen not named on the sheet, NABA-avi-his per paragraph 230
[6] = target: T2, huNABA-avi-his (hybrid protein …); experiment: Biacore, column Affinity, CDR-L1 and CDR-L2 rows; antigen not named on the sheet, NABA-avi-his per paragraph 230
[7] = target: T2, huNABA-avi-his (hybrid protein …); experiment: Biacore SPR, Fab; antigen not named on the sheet, NABA-avi-his per paragraph 230
[8] = target: T2, huNABA-avi-his (hybrid protein …); experiment: Proteon SPR, antibody analyte on biotinylated NABA (Neutravidin chip)
Description: (§2) Proteon (Biacore) sensorgrams were obtained for the binding of the combined framework and CDR-H3 variants to the CEA antigen-harbouring chimeric protein NABA. […] The precursor clone 5L1A10 and the parental antibody CH7A were included for direct comparison. All antibodies tested in this assay had 2F1 as the light chain FIG. 25.

[9] = target: T2, huNABA-avi-his (hybrid protein …); experiment: Biacore on immobilized NABA-avi-his; Bivalent Affinity
[10] = target: T2, huNABA-avi-his (hybrid protein …); experiment: Proteon SPR, antibody analyte on biotinylated NABA (Neutravidin chip); column Ka (M)
Description: as §2

[11] = target: T2, huNABA-avi-his (hybrid protein …); experiment: Proteon SPR, antibody analyte on biotinylated NABA (Neutravidin chip)
Description: (§3) Shown in FIG. 22 are Proteon (Biacore) sensorgrams obtained for the binding of the CDR-H3 antibody variants to the CEA antigen-harbouring chimeric protein NABA. […] The affinity matured precursor clone 5HFF12 and the parental antibody CH7A were included for direct comparison. All antibodies tested in this assay had 2F1 as the light chain. […] The relative affinity of each, measured in the bivalent form, is as follows: 5HFF12>CH7A (Y98A/D99Y)>CH7A (Y98A)>CH7A>CH7A (E102Q)>CH7A (D99Y)>CH7A (D99H)>CH7A (A103T)>CH7A (V101F)>CH7A (W95Y).

[12] = target: T2, huNABA-avi-his (hybrid protein …); experiment: Proteon SPR, antibody analyte on biotinylated NABA (Neutravidin chip); column Ka (M)
[13] = target: T2, huNABA-avi-his (hybrid protein …); experiment: as above
Description: as §3

[14] = target: T2, huNABA-avi-his (hybrid protein …); experiment: Proteon SPR, antibody analyte on biotinylated NABA (Neutravidin chip)
[15] = target: T1, human carcinoembryonic antigen (CEA), …; experiment: flow cytometry on CEA positive MKN45 cells, IgG [lower panel]
Description: as §1

B1: antibody with parent heavy chain variable region CH7A and affinity matured light chain variable region CL1A rH11 (antibody, V domains shown)
VH: QVQLVQSGSELKKPGASVKVSCKASGYTFTEFGMNWVRQAPGQGLEWMGWINTKTGEATYVEEFKGRFVFSLDTSVSTAYLQISSLKAEDTAVYYCARWDFYDYVEAMDYWGQGTTVTVSS
VL: DIQMTQSPSSLSASVGDRVTITCKASQTVSANVAWYQQKPGKAPKLLIYLASYRYRGVPSRFSGSGSGTDFTLTISSLQPEDFATYYCHQYYTYPLFTFGQGTKLEIK
notes: The suffix G2(1) is not explained; also called CH7A, CL1ArH11; CH7A, CL1A rH11 G2(1)
EC50 (read off the curve) [1]: ~0.3 µg/mL | EC50 (read off the curve) [2]: ~0.5 µg/mL

B2: PR1A3 (Fab, V domains shown)
VH: QVQLVQSGSELKKPGASVKVSCKASGYTFTEFGMNWVRQAPGQGLEWMGWINTKTGEATYVEEFKGRFVFSLDTSVSTAYLQISSLKAEDTAVYYCARWDFYDYVEAMDYWGQGTTVTVSS
VL: DIQMTQSPSSLSASVGDRVTITCKASQNVGTNVAWYQQKPGKAPKLLIYSASYRYSGVPSRFSGSGSGTDFTLTISSLQPEDFATYYCHQYYTYPLFTFGQGTKLEIK
notes: also called PR1A3 wt/wt; pMS22
Kd [3]: 3680 nM | koff [3]: 0.0248 s⁻¹ | kon [3]: 6740 M⁻¹ s⁻¹ | Kd [4]: 3680 nM | Kd [5]: 3680 nM | Kd [6]: 3680 nM

B3: anti-CEA Fab with unmatured heavy chain CH7A and affinity matured light chain CL1A pAC18 (Fab, V domains shown)
VH: QVQLVQSGSELKKPGASVKVSCKASGYTFTEFGMNWVRQAPGQGLEWMGWINTKTGEATYVEEFKGRFVFSLDTSVSTAYLQISSLKAEDTAVYYCARWDFYDYVEAMDYWGQGTTVTVSS
VL: DIQMTQSPSSLSASVGDRVTITCKASAAVGTYVAWYQQKPGKAPKLLIYSASYRKRGVPSRFSGSGSGTDFTLTISSLQPEDFATYYCHQYYTYPLFTFGQGTKLEIKR
notes: Fab format, bacterially expressed; also called CH7A + CL1A pAC18
Kd [3]: 220 nM | koff [3]: 0.0207 s⁻¹ | kon [3]: 95700 M⁻¹ s⁻¹ | Kd [6]: 220 nM | Kd [7]: 216 nM

Results, then the binder that gave them:

Kd [8]: 1.97 nM | Kd [9]: 0.952 nM | koff [9]: 0.00041 s⁻¹ | kon [9]: 423000 M⁻¹ s⁻¹ | kon [10]: 369000 M⁻¹ s⁻¹ | Kd [11]: 1.07 nM | kon [12]: 122000 M⁻¹ s⁻¹ | kon [13]: 132000 M⁻¹ s⁻¹ | Kd [14]: 1.84 nM
B4: humanized PR1A3 antibody with heavy chain variable region CH7A and light chain variable region 2F1 (antibody, V domains shown)
VH: QVQLVQSGSELKKPGASVKVSCKASGYTFTEFGMNWVRQAPGQGLEWMGWINTKTGEATYVEEFKGRFVFSLDTSVSTAYLQISSLKAEDTAVYYCARWDFYDYVEAMDYWGQGTTVTVSS
VL: DIQMTQSPSSLSASVGDRVTITCKASAAVGTYVAWYQQKPGKAPKLLIYSASYRKRGVPSRFSGSGSGTDFTLTISSLQPEDFATYYCHQYYTYPLFTFGQGTKLEIKR
notes: Measured in the bivalent form; also called CH7Ax2F1; parental antibody CH7A

EC50 (read off the curve) [15]: ~0.5 µg/mL
B5: antibody with affinity matured heavy chain variable region CH7A rB9 and affinity matured light chain variable region CL1A rH11 G2(1) (antibody, V domains shown)
VH: QVQLVQSGSELKKPGASVKVSCKASGYTFTEFGMNWVRQAPGQGLEWMGWINTKSGEATYVEEFKGRFVFSLDTSVSTAYLQISSLKAEDTAVYYCARWDFYDYVEAMDYWGQGTTVTVSS
VL: DIQMTQSPSSLSASVGDRVTITCKASQTVSANVAWYQQKPGKAPKLLIYLASYRYRGVPSRFSGSGSGTDFTLTISSLQPEDFATYYCHQYYTYPLFTFGQGTKLEIK
notes: also called CH7A rB9, CL1A rH11 G2(1); CH7ArB9, CL1A rH11G2(1)

Kd [3]: 96 nM | koff [3]: 0.0035 s⁻¹ | kon [3]: 36400 M⁻¹ s⁻¹ | Kd [7]: 96 nM
B6: anti-CEA Fab with affinity matured heavy chain CH7A H4E9 and affinity matured light chain CL1A pAC18 (Fab, V domains shown)
VH: QVQLVQSGSELKKPGASVKVSCKASGYTFTEFGMNWVRQAPGQGLEWMGWINTKTGEATYIEEFKGRFVFSLDTSVSTAYLQISSLKAEDTAVYYCARWDFYDYVEAMDYWGQGTTVTVSS
VL: DIQMTQSPSSLSASVGDRVTITCKASAAVGTYVAWYQQKPGKAPKLLIYSASYRKRGVPSRFSGSGSGTDFTLTISSLQPEDFATYYCHQYYTYPLFTFGQGTKLEIKR
notes: Fab format, bacterially expressed; also called CH7A H4E9 and CL1A pAC18

EC50 (read off the curve) [2]: ~0.7 µg/mL
B7: antibody with heavy chain variable region CH7A and affinity matured light chain variable region CL1A rH7 (antibody, V domains shown)
VH: QVQLVQSGSELKKPGASVKVSCKASGYTFTEFGMNWVRQAPGQGLEWMGWINTKTGEATYVEEFKGRFVFSLDTSVSTAYLQISSLKAEDTAVYYCARWDFYDYVEAMDYWGQGTTVTVSS
VL: DIQMTQSPSSLSASVGDRVTITCKASQKVLTNVAWYQQKPGKAPKLLIYLASYRYSGVPSRFSGSGSGTDFTLTISSLQPEDFATYYCHQYYTYPLFTFGQGTKLEIK
notes: also called CH7A, CL1ArH7

Reference: patent publication US20230365711A1 (Hoffmann-La Roche, published 2023)
